Data published in patent publication EP4714976A1 (Sunshine Lake Pharma Co., Ltd., dated 2026).
Positions count from the first letter of the chain named.

B1: 2B1 scFv displayed on phage (scFv)
scFv: EVQLQQSGAELVKPGASVKMSCKASGYTFASYNLHWVKQTPGQGLEWIGLIYPENGDTSYNQKFKGKATLTADKSSSTAYIQLSSLTSEDSAVYFCARGGFDYWGQGTSLTVSSGGGGSGGGGSGGGGSDIQMIQSPASLSVSVGETVTITCRASENIYSNLAWYQQKQGKSPQLLVYNAKTLADGVPSRFSGSGSGTQYSLKINSLQPEDFGSYYCQHFWSTPYTFGGGTKLEIK
B2: 3H6 scFv displayed on phage (scFv)
scFv: QVQLQQSGAELVKPGASVKMSCKASGYTFSFYNIHWVRQTPGQGLEWIGLIYPDNGDTSYNQKFKAKATLTADKSSSTAYMQLSSLTSEDSAVYYCARGGFDYWGQGTTLTVSSGGGGSGGGGSGGGGSDIQMTQSPASLSASVGETVTITCRASENIYSYLAWYQQKQGKSPQLLVYNAKTLAEGVPSRFSGSGSGTQFSLKINSLQPEDFGSYYCQHHYGTPYTFGGGTKLEMK
B3: 3A8 scFv displayed on phage (scFv)
scFv: QVQLQQSGAELVKPGASVKMSCKASGYTFTIYNIHWVRQTPGQGLEWIGLIYPDNGDTSYNQKFKAKATLTADKSSSTAYMQLSSLTSEDSAVYYCARGGFDYWGQGTSLTVSSGGGGSGGGGSGGGGSDIVMTQSQKFMSTSVGDRVSVTCKASQNVGTNVAWYQQKPGQSPKALIYSASYRYSGVPDRFTGSGSGTDFTLTISNVQAEDLADYFCQQHYSTPYTFGGGTKLEMK
B4: 3E7 scFv displayed on phage (scFv)
scFv: B3 scFv with S109T, D130N, N206G, F216Y, S222N, M235I
B5: 3F11 scFv displayed on phage (scFv)
scFv: B3 scFv with T30A, I31P, A209S, D214E, Y225F, G229S, M235I
B6: 3B7 scFv displayed on phage (scFv)
scFv: EVQLQQSGAELVKPGASVKMSCKASGYTFRYYNMHWVKRTPGQGLEWIGLIYPDNGDTSYNQKFKGKATLTADTSSSTAYMQLSSLTSEDSAVYYCARGGFDYWGQGTTLTVSSGGGGSGGGGSGGGGSDIQMTQSPASLSASVGETVTITCGASENIYGALNWYQRKQGKSPQLLIYGATNLADGMSSRFSGSGSGRQYSLKISSLHPDDVATYYCQNVLSTPYTFGGGTKLELK
B7: 3B4 scFv displayed on phage (scFv)
scFv: B6 scFv with E10D, R30S, K38R, F101L, T134I, L140M, L235M
B8: 3C9 scFv displayed on phage (scFv)
scFv: B6 scFv with V2I, T28I, F101L, T134I, L235I
B9: 3E3 scFv displayed on phage (scFv)
scFv: QVQLQQPGAVLVKPGASVRMSCKASGYTFPYYNVHWVKRTPGQGLEWIGLIYPDNGDTSYNQKFTGKATLTADTSSSTAYMQLSSLTSEDSAVYYCARGGLDYWGQGTTLTVSAGGGGSGGGGSGGGGSDVQITQSPASLSASVGETVTITCGASENIYGALNWYQRKQGKSPQLLIYGATNLADGMSSRFSGSGSGRQYSLKISSLHPDDVATYYCQNVLSTPYTFGGGTKLEIK
B10: 3F5 scFv displayed on phage (scFv)
scFv: B6 scFv with V2I, F101L, Q132V, M133L, L235I
B11: 3F10 scFv displayed on phage (scFv)
scFv: B6 scFv with R30S, Y31F, M34I, K38R, R39Q, G66A, T74K, I131V, Q132L, L235I
B12: 3C7 scFv displayed on phage (scFv)
scFv: EIQLQQSGAELVKPGASVKMSCKASGYIFRNYYIHWVKRTPGQGLEWIGAIYPDNGDTSYNQRFKVKATLTADTSSSTAYMQLSSLTSEDSAVYYCARAFTYWGQGTTLTVSSGGGGSGGGGSGGGGSDIQMIQSPASLSASVGETVTITCGASENIYGALNWYQRKQGKSPQLLIYGATNLADGMSSRFSGSGSGRQYSLKISSLHPDDVATYYCQNVLSTPYTFGGGTKLEIK
B13: 3E1 scFv displayed on phage (scFv)
scFv: QVQLQQPGAEVVKPGASVKMSCKASGYTFTDYYIHWVKQTPGQGLEWIGAIYPDNGDTSYNQKFKVKATLTADKSSSTAYMQLSSLTSEDSAVYYCARAFTYWGQGTLVTVSAGGGGSGGGGSGGGGSDILITQSPASLSASVGETVTITCGASENIYGALNWYQRKQGKSPQLLIYGATNLADGMSSRFSGSGSGRQYSLKISSLHPDDVATYYCQNVLSTPYTFGGGTKLEIK
B14: 1G6 scFv displayed on phage (scFv)
scFv: EIQLQQSGAELVKPGASVKMSCKASGYTFRYYNMHWVKRTPGQGLEWIGLIYPDNGDTSYNQKFKGKATLTADTSSSTAYMQLSSLTSEDSAVYYCARGGLDYWGQGTSLTVSSGGGGSGGGGSGGGGSNIVMTQSHKFMSTSVGDRVSITCKASQDVNTDVAWYQQKPGQSPKLLIYSASYRYTGVPTRFTGSGSGTDFTFTISGVQAEDLADYYCQQHYNTPYTFGGGTKLELK
B15: 3E2 scFv displayed on phage (scFv)
scFv: EIQLQQSGAELVKPGASVKMSCKASGYTFSFYNMHWVKRTPGQGLEWIGLIYPDNGDTSYNQKFKGKATLTADTSSSTAYMQLSSLTSEDSAVYYCARGGLDYWGQGTSLTVSSGGGGSGGGGSGGGGSNIVMTQSQKFMSTSVGDRVSVTCKASQNVGTNVAWYQQKPGQSPKALIYSASYRYTGVPDRFTGSGSGTDFTFTISSVQAEDLAVYYCQQHYSTPYTFGGGTKLEIK
B16: 1B8 scFv displayed on phage (scFv)
scFv: QIQLQQSGAELVKPGASVKMSCKASGYTFASYNLHWVKQTPGQGLEWIGLIYPENGDTSYNQKFKGKATLTADTSSTTAYIQLSSLTSEDSAVYFCARGGFDYWGQGTSLTVSSGGGGSGGGGSGGGGSDIKMTQSPASLSASVGETVTITCGASENIYGALNWYQRKQGKSPQLLIYGATNLADGMSSRFSGSGSGRQYSLKISSLHPDDVATYYCQNVLSTPYTFGGGTKLEIK
B17: 1D7 scFv displayed on phage (scFv)
scFv: QIQLQQSGAELVKPGASVKMSCKASGYTFRYYNMHWVKRTPGQGLEWIGLIYPDNGDTSYNQKFKGKATLTADTSSSTAYMQLSSLTSEDSAVYYCARGGLDYWGQGTSLTVSSGGGGSGGGGSGGGGSDIQMTQSPSSMSASLGDRITITCQATQDIVKNLNWYQQKPGKPPSFLIYYATELAEGVPSRFSGSGSGSDYSLTISNLESEDFADYYCLQFYEFPLTFGAGTKLELK
B18: 2B2 scFv displayed on phage (scFv)
scFv: QLQLQQSGAELVKPGASVKMSCKASGYTFASYNLHWVKQTPGQGLEWIGLIYPENGDTSYNQKFKDKATLTADKSSTTAYIQLSSLASEDSAVYFCARGGFDYWGQGTTLTVSSGGGGSGGGGSGGGGSDIVMTQSQKFMSTSVGDRVSVTCKASQNVGTNVAWYQQKPGQSPKALIYSASYRYSGVPDRFTGSGSGTDYTLTISSVQAEDLALYYCQQHYSTPYTFGGGTKLELK
B19: 3G10 scFv displayed on phage (scFv)
scFv: EVQLQQSGPELVKPGASVKMSCKASGYTFATYNMHWVKQTTGQGLEWIGAIYPDNGDTFYNRKFKDKATLTADKSSTTAYMQLSSLTSEDSAVYYCARGDFAYWGQGTLVTVSAGGGGSGGGGSGGGGSDVLMTQSPASLSASVGETVTITCGASENIYGALNWYQRKQGKSPQLLIYGATNLADGMSSRFSGSGSGRQYSLKISSLHPDDVATYYCQNVLSTPYTFGGGTKLEMK
B20: 3A3 scFv displayed on phage (scFv)
scFv: QVQLQQSGAELVKPGASVKMSCKASGYTFTTYNIHWVRQTPGQGLEWIGLIYPDNGDTSYNQKFKAKATLTADKSSSTAYMHLSSLTSEDSAVYYCARGGFDYWGQGTTLTVSSGGGGSGGGGSGGGGSDIVMTQSHKFMSTSVGDRVSITCKASQDVNTDVSWYQQKPGQSPKLLIYSASYRYTGVPTRFTGSGSGTDFTFTISGVQAEDLADYYCQQHYNTPYTFGGGTRLEIK

target: T1, extracellular domain of FGFR2c protein (Example 1) (UniProt P21802 22-377); test: phage ELISA
T1 construct: extracellular domain
T1 sequence (P21802 22-377): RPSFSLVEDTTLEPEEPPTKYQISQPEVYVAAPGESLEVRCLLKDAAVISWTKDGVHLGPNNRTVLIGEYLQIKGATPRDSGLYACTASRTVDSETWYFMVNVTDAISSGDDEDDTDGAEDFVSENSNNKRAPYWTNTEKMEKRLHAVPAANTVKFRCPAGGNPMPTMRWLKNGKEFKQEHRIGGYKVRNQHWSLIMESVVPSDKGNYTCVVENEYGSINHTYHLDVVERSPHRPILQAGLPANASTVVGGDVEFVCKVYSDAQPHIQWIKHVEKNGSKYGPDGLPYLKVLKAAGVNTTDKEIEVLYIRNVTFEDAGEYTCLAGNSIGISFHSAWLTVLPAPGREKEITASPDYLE

Binder	OD (450 nm) value
B1	0.049
B2	0.062
B3	0.065
B4	0.034
B5	0.045
B6	0.043
B7	0.042
B8	0.033
B9	0.033
B10	0.038
B11	0.039
B12	0.04
B13	0.056
B14	0.073
B15	0.036
B16	0.082
B17	0.059
B18	0.051
B19	0.042
B20	0.05

target: T1, extracellular domain of FGFR2c protein …; test: phage ELISA; remark: another data set of the same source

Binder	binding result
B1	no binding
B2	no binding
B3	no binding
B4	no binding
B5	no binding
B6	no binding
B7	no binding
B8	no binding
B9	no binding
B10	no binding
B11	no binding
B12	no binding
B13	no binding
B14	no binding
B15	no binding
B16	no binding
B17	no binding
B18	no binding
B19	no binding
B20	no binding
